± gives the half width of the 95% confidence interval.
How the values were obtained:
[1] = folding stability dG unfold (combined trypsin and chymotrypsin); higher = more stable
Summary of the method: (§1)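 How resistant each design was to proteolysis was captured as K50, inferred by Bayesian fitting of sequencing counts. Unfolding free energy was then derived relative to a sequence-predicted unfolded-state K50 and a shared folded-state K50, per protease or combined. Digestion used trypsin and chymotrypsin at 11 threefold-diluted concentrations plus a no-protease condition, on mini-proteins under 80 residues without cysteine in a PA-tagged cDNA display construct. Designs were kept only when AlphaFold2 dimer inter-PAE was above 15.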

[2] = folding stability dG unfold from trypsin proteolysis; higher = more stable
Summary of the method: as §1

[3] = folding stability dG unfold from chymotrypsin proteolysis; higher = more stable
Summary of the method: as §1

| Sequence | folding stability dG unfold [1] | folding stability dG unfold [2] | folding stability dG unfold [3] |
| --- | --- | --- | --- |
| SGREEEIAEELREKLLAEGYTEVEVEIEVRPDPNSDNVLVTVTVRATKKDAEGNWKTYEETIPVLIPAEASA [r9_440_JUSTAS] | 13 ± 1.05 kJ/mol | 13.1 ± 1.09 kJ/mol | 13.5 ± 0.628 kJ/mol |
| SGSMTLVSESTVPEKGTTLLTLKFPNGAPATVTLNPDGSSTTTFPATGLPFTVTVGSGTLTVTTPAALALSA [r9_233_JUSTAS] | 5.16 ± 0.753 kJ/mol | 4.24 ± 0.418 kJ/mol | 5.96 ± 0.502 kJ/mol |
| SGSSYLPLEDVKTEWKKNPNSDVYNYTTFLQTPSGEPISVTYDPKTGKITFNLPPGTTWRPGKKSEVKLESA [r9_509_JUSTAS] | 3.62 ± 0.669 kJ/mol | 0.517 ± 0.669 kJ/mol | 4.72 ± 0.962 kJ/mol |
| SGVEYIEIPLEVTLDAPLEKAFEFLEDLAEEFGLGDIEVLEVEVDPETGKVRVKALARIAIAPPPPPSLESA [r9_918_TrMRF] | 13.3 ± 0.711 kJ/mol | 11.9 ± 0.184 kJ/mol | 14.8 ± 0.46 kJ/mol |
| SGVLVVTHPDGSVSTVPFTHPDGLVVDISAGVDAPLYATVVRLLPDGTPEPLPVFEFDSIEDVLEALAEASA [r9_942_TrMRF] | 6.74 ± 0.0962 kJ/mol | 2.28 ± 0.0669 kJ/mol | 8.298 ± 0.0586 kJ/mol |
| SHPDEFPKELVDAIAKAFPNIKRIEVEPLPDKFVLLKVEFIDGDGEGRVAFAVPTPDGETALHEYLVRNPSA [r9_678_TrMRF] | 4.76 ± 0.234 kJ/mol | 4.19 ± 0.0544 kJ/mol | 5.17 ± 0.259 kJ/mol |
| SHWVRKELQEKGYPVKDIEMNPPQGYFYITIQRKRPRKGKPKKKEITIPMDPNMTPDNMLWMARNALDAYSA [r9_184_TrROS] | 3.36 ± 0.418 kJ/mol | 4.41 ± 0.586 kJ/mol | 2.48 ± 0.586 kJ/mol |
| SIEFKEGQWFPIREIDNNHIEWKHNNEPYKIPPDEIDEPGDWIRITNGRIPEIRPPPPPPVDPEDAKKKKSA [r9_842_TrROS] | 14.7 ± 1.38 kJ/mol | 10.9 ± 1.34 kJ/mol | 17.2 ± 1.34 kJ/mol |
| SIINALREALKDGKPGQEIPIMMPPDGMGELMNWLQDYGFKPKKMEPMPMNNRPMYTHEFTIDPKNGKFRSA [r9_498_TrROS] | 0.404 ± 1.21 kJ/mol | -0.257 ± 1.63 kJ/mol | 1.09 ± 1.09 kJ/mol |
| SIKELAKELPGFQVSVEPDDPGQVKITIMVPDDPQQQKRFQNKIIELANDIQGEHGMPVTIEIQPVPPGDSA [r9_1099_TrROS] | -0.0119 ± 0.339 kJ/mol | -0.994 ± 0.234 kJ/mol | 0.224 ± 0.402 kJ/mol |
| SIKLSNGETIEYEPSPNKTYTIKHPDGRVVKILKVEREKDKYTVEIQFDDGSTKTIEIPPDKPEIIEKELLS [r1_66_JUSTAS] | 5.19 ± 0.502 kJ/mol | 5.75 ± 0.113 kJ/mol | 3.98 ± 0.335 kJ/mol |
| SIRGMPPEVVLYIIRFFAREQKNKGMPPDDRPIEINIMMPNPEARKDAKKEIKEENPGIKDVKIEVMPPNSA [r9_341_TrROS] | 10.9 ± 2.34 kJ/mol | 9.2 ± 0.46 kJ/mol | 13 ± 0.711 kJ/mol |
| SITIMVDNLPPGATAEELASTLFNWIQQFGWEVTPIKITPMPDNWVTVEIEFKNNGKPIFRETIEFRPDASA [r9_953_TrROS] | 13.6 ± 0.377 kJ/mol | 10.1 ± 0.385 kJ/mol | 14.9 ± 0.251 kJ/mol |
| SIVIRLPDGKPLMIQLTMYYPPDNDKIEIPVEIYDGGKPRTFEHEIPPGDNKPVTFSLHIPLPPGAYIKISA [r9_973_TrROS] | 9.96 ± 0.962 kJ/mol | 9.07 ± 0.502 kJ/mol | 10.3 ± 0.586 kJ/mol |
| SIWFSPGKKYKIDEIRFGGWEIEKFTAQVGPDGNIQIPMDIKPVKKPPPPPPVVRNPEDGKYYDPGDPKDSA [r9_603_TrROS] | 4.36 ± 3.26 kJ/mol | -0.53 ± 1.63 kJ/mol | 6.88 ± 1.05 kJ/mol |
| SIYIMLPVPPGKPYKLSIEIEMPDNGRPYEYDGTFNPENGWVMFPVRFPDNGHPIPPEDFKVKVELEPPKSA [r9_928_TrROS] | 8.66 ± 0.962 kJ/mol | 5.96 ± 0.301 kJ/mol | 10.2 ± 0.586 kJ/mol |
| SKDPNNEWVVIKFEVTIPVPPGQKPITADEIASQVRQIMQNHGMEITSVEVEYRGNQVTVSVEIVIPKKASA [r9_1134_TrROS] | 13.5 ± 0.753 kJ/mol | 13.5 ± 0.795 kJ/mol | 13.9 ± 0.46 kJ/mol |
| SKEEEEEIEIEIVVPNLTEEEIKELAKELLEKKGYEVEEIEITEEELEELKNKKPGDEVVIKIKIKVKKKSA [r9_1163_TrROS_Hall] | 10.5 ± 0.837 kJ/mol | 10.5 ± 0.795 kJ/mol | 9.52 ± 0.305 kJ/mol |

| Sequence | folding stability dG unfold [1] | folding stability dG unfold [2] | folding stability dG unfold [3] |
| --- | --- | --- | --- |
| SKEVKITIEVKEVNGKLYVVVKVEVNGKEETLVFKSLEEAKNAIAKKLGLPKEKIKIKKVEVYKVSKKDLSA [r9_909_TrROS_Hall] | 4.5 ± 1 kJ/mol | 4.04 ± 0.669 kJ/mol | 3.64 ± 0.879 kJ/mol |
| SKGKKTVTINFMLKVEDPEDLPPGQEVKIPPEFIDFLRDQGFKITEIKIRVVPPPDGDVYVMFSSTIEVDSA [r9_465_TrROS] | 12.1 ± 1.42 kJ/mol | 8.33 ± 0.406 kJ/mol | 14.8 ± 0.418 kJ/mol |
| SKGTFMAMMPLDEIKEIVENFAKQGWNIKIKPKSIQPFPFPHNDEDGEPEPYPMVMVEVEIKIVPPGDPPSA [r9_991_TrROS] | 6.85 ± 0.406 kJ/mol | 5.55 ± 0.1 kJ/mol | 7.92 ± 0.36 kJ/mol |
| SKIEIEVFPEEGFIRIRLEAENLTEEELKDAIIEFIKSLGFPAEVEILRIEPSGNTIRIEALVKVEPGYLSA [r9_347_TrMRF] | 12.4 ± 0.389 kJ/mol | 13.7 ± 0.502 kJ/mol | 11.18 ± 0.092 kJ/mol |
| SKIRIIRPERSLEIDLPKSARIEFDPETRRIYFINPDGERLEFPLGPNAVIIPGDDEITIIDPPASPENPSA [r9_653_TrMRF] | 13.4 ± 0.331 kJ/mol | 9.25 ± 0.159 kJ/mol | 15.4 ± 0.176 kJ/mol |
| SKKIKIILRYPDGWYVKAEMEVPNGKERDIWFPNPEEAIEWAKTIARQFNPGVEIEDIETVPPDDLPPNFSA [r9_137_TrROS] | 6.73 ± 0.962 kJ/mol | 5.08 ± 0.351 kJ/mol | 7.8 ± 0.322 kJ/mol |
| SKKKTLKIVDKETNVVIEMTAEELAEKLGLSVEDLEIEVVDLKTKEVKTIKIKLPKPKPEEKKKVKEEEKSA [r9_819_TrROS_Hall] | 3.14 ± 0.628 kJ/mol | -1.41 ± 0.962 kJ/mol | 4.93 ± 0.192 kJ/mol |
| SKKKVTIEIEIVVRVPEGDELKNMTAEELAALLAEELGVEVEIVEVELVEYDEETGEYYVRIKVKITFPESA [r9_107_TrROS_Hall] | 11.6 ± 0.586 kJ/mol | 12.4 ± 0.711 kJ/mol | 11.8 ± 0.544 kJ/mol |
| SKKPKLKIEIEIPEITNMQPDPDNGKYTMRVPFRIKIEWKDNGKEREVDIPIPMNMTVDDARDQLKDLLKSA [r9_656_TrROS] | 4.62 ± 0.544 kJ/mol | 2.63 ± 0.184 kJ/mol | 6.57 ± 0.669 kJ/mol |
| SKKTVTIELYVPNMTPEQLRALLEALGYKVKKEEFDEDRGVVRLTVELPEDGTTITITIVRPPLPPGEKPSA [r9_1090_TrROS_Hall] | 10.8 ± 0.502 kJ/mol | 9.41 ± 0.502 kJ/mol | 10.6 ± 0.192 kJ/mol |
| SKKVEIKIKVERNEDGYLTVTIEIRAETEEELLEAAKELAKALFPEDVEIRVEKLPDGTVKITIVVKLPPSA [r9_646_TrROS_Hall] | 9.57 ± 0.586 kJ/mol | 11.1 ± 0.628 kJ/mol | 7.97 ± 0.46 kJ/mol |
| SKKVKITEITFPEGATFDGKKVTVTIKIVDEETGTVTITEITVDKNGKVTIKEVTVKVDPKTGKIVEITPSA [r9_122_TrROS_Hall] | 7.54 ± 0.795 kJ/mol | 7.3 ± 0.251 kJ/mol | 8.44 ± 0.167 kJ/mol |
| SKKVKPIATIDVEGMSLEELLAAIKAALPPGEKAIVRIVNADGEVRTIEIDAKTGEIKSLPPGARIYIYPSA [r9_853_TrROS_Hall] | 8.44 ± 0.201 kJ/mol | 8.78 ± 0.113 kJ/mol | 8.14 ± 0.146 kJ/mol |
| SKKVTIMIMIRRRDPEDGKYRPIPPEFILEMVRRARKKGKKVKITFMNPDNPWAKRLAKRAKEEGIKIEWSA [r9_468_TrROS] | 8.78 ± 0.46 kJ/mol | 8.35 ± 0.209 kJ/mol | 8.8 ± 0.586 kJ/mol |
| SKLKIEEIEINPNMPYTISVKLPDGFYISIQYDPGKPDQMKMNIFPPDGKKREHTIPANEPIRINFEIEPSA [r9_875_TrROS] | 9.15 ± 0.502 kJ/mol | 5.64 ± 0.142 kJ/mol | 10.7 ± 0.167 kJ/mol |
| SKLPPGQPYRRVEMTITFDFKSPKELRKKIRELFGKIEVDMKHNPEDNWYTIDIWFPSPAVMDELKELIFSA [r9_764_TrROS] | 12.9 ± 0.962 kJ/mol | 12.8 ± 0.711 kJ/mol | 13.8 ± 0.255 kJ/mol |
| SKLVEKIAEEFGISSAMPHPDGQFMIMFPDGYMIKINIEIDEVKPKPDGKPELDLDIEIEIIPMPPPDDMSA [r9_648_TrROS] | 10 ± 0.795 kJ/mol | 8.58 ± 0.28 kJ/mol | 11.5 ± 0.301 kJ/mol |
| SKPDAPKIVELLRELFPDLEITSVSYDPETGTYTVTFPDGVVAEVHVDPNGNVHIVLRTPTSERTFTLPVSA [r9_304_TrMRF] | 10.6 ± 0.293 kJ/mol | 11.2 ± 0.418 kJ/mol | 9.95 ± 0.18 kJ/mol |

Source: the supplement of paper PMC12764529
